Source: PMC7961821, “Comparing Ligninolytic Capabilities of Bacterial and Fungal Dye-Decolorizing Peroxidases and Class-II Peroxidase-Catalases” (International Journal of Molecular Sciences, 2021)

Legend:
Test in all cases: purified protein
purified protein [1] = substrate: CCn1c(=NN=c2sc3cc(S(=O)(=O)O)ccc3n2CC)sc2cc(S(=O)(=O)O)ccc21; type: biochemical, Amycolatopsis sp. ATCC 39116; conditions: 1 mM H2O2, pH 5, 25 °C
purified protein [2] = substrate: COc1cccc(OC)c1O
purified protein [3] = substrate: Nc1c(S(=O)(=O)O)cc(Nc2cccc(S(=O)(=O)CCOS(=O)(=O)O)c2)c2c1C(=O)c1ccccc1C2=O; conditions: 1 mM H2O2, optimal pH (not given for RB19), 25 °C
purified protein [4] = substrate: COc1cc(C(O)C(CO)Oc2ccccc2OC)ccc1O; conditions: 1 mM H2O2, 100 mM tartrate, pH 3, 25 °C, pH 3.0
purified protein [5] = substrate: COc1ccc(C(O)C(CO)Oc2ccccc2OC)cc1OC; type: biochemical, Pleurotus eryngii; conditions: 1 mM H2O2, 100 mM tartrate, pH 3, 25 °C
purified protein [6] = substrate: COc1ccc(C(O)C(CO)Oc2ccccc2OC)cc1OC; type: biochemical, Auricularia auricula-judae; conditions: 1 mM H2O2, 100 mM tartrate, pH 3, 25 °C
purified protein [7] = substrate: COc1ccc(C(O)C(CO)Oc2ccccc2OC)cc1OC; type: biochemical, Phanerodontia chrysosporium; conditions: 1 mM H2O2, 100 mM tartrate, pH 3, 25 °C
purified protein [8] = substrate: CCn1c(=NN=c2sc3cc(S(=O)(=O)O)ccc3n2CC)sc2cc(S(=O)(=O)O)ccc21; type: biochemical, Thermomonospora curvata; conditions: 1 mM H2O2, pH 3, 25 °C

B1: AspDyP2 (Amycolatopsis sp. ATCC 39116) (protein)
chain: MPVDLSTTLSWKSATGEAATMLDELQPNILKAHVRDRLTVLFLGFGDAAEARTFLNGLSGLMKSARTHLQEVEAHKLTKAVGTPYLGVGLTAHGYATLGVTAPADPSFTAGAKAAVEKLADPAVTEWEGHYQQTIDAVLLLGDATAGPVRTLRRQVEALRPASVTVVGEESGLGLANANGDGIEHFGYVDGRSQPLFLTEDVDAERDTTDGVNDWDPSAPLEQVLVPDPAAPDPTVHFGSYFVFRKLEQNVRLFKEAERDLAHDLGLRGEDRERAGAMLVGRFEDGTPLTAQSAPGSHHPVGNDFSYDSDKLGQKCPFHAHIRKTNPRGSGGAEAPEEERKHLMARRGQTYGRRHDDPNADLPPRLRPAKDVGLLFMAFNSNLGNQFEFTQQIWANNPAFPFPPDGSQPGLDPVIGQGARAPQKYAPEWGHNNVAEATDPIPQAVTMKGGEYFFMPSLAFLRSL
notes: mature protein, codon-optimised, N-terminal His tag (pET28a), soluble from E. coli BL21(DE3) pLysS, heme enzyme
Q: B1 was tested. Which Km (purified protein [1]) did it give?
A: 165 ± 18 µM

Q: What about the kcat (purified protein [1]) of the same protein?
A: 30.0 ± 0.9 s⁻¹

Q: And the kcat/Km (purified protein [1])?
A: 180000 ± 20000 M⁻¹ s⁻¹

Q: What about the Km (purified protein [2]; 1 mM H2O2, pH 4, 25 °C, pH 4.0) of the same protein?
A: 177 ± 34 µM

Q: And the kcat (purified protein [2]; 1 mM H2O2, pH 4, 25 °C, pH 4.0)?
A: 94.0 ± 4.6 s⁻¹

Q: What about the kcat/Km (purified protein [2]; 1 mM H2O2, pH 4, 25 °C, pH 4.0) of the same protein?
A: 530000 ± 80000 M⁻¹ s⁻¹

Q: What about the Km (purified protein [3]) of the same protein?
A: 20 ± 4 µM

Q: And the kcat (purified protein [3])?
A: 26.0 ± 2.0 s⁻¹

Q: And the kcat/Km (purified protein [3])?
A: 1.3e+06 ± 200000 M⁻¹ s⁻¹

Q: What about the Km (purified protein [4]) of the same protein?
A: 179 ± 39 µM

Q: What about the kcat (purified protein [4]) of the same protein?
A: 12.0 ± 1.2 s⁻¹

Q: What about the kcat/Km (purified protein [4]) of the same protein?
A: 67000 ± 8500 M⁻¹ s⁻¹

B2: PerVPL (Pleurotus eryngii) (protein)
chain: ATCDDGRTTANAACCILFPILDDIQENLFDGAQCGEEVHESLRLTFHDAIGFSPTLGGGGADGSIIAFDTIETNFPANAGIDEIVSAQKPFVAKHNISAGDFIQFAGAVGVSNCPGGVRIPFFLGRPDAVAASPDHLVPEPFDSVDSILARMGDAGFSPVEVVWLLASHSIAAADKVDPSIPGTPFDSTPGVFDSQFFIETQLKGRLFPGTADNKGEAQSPLQGEIRLQSDHLLARDPQTACEWQSMVNNQPKIQNRFAATMSKMALLGQDKTKLIDCSDVIPTPPALVGAAHLPAGFSLSDVEQACAATPFPALTADPGPVTSVPPVPGS
notes: heme enzyme
Q: Which results are given for B2?
A: Km (purified protein [5]): 659 ± 80 µM; kcat (purified protein [5]): 1.2 ± 0.1 s⁻¹; kcat/Km (purified protein [5]): 1800 ± 100 M⁻¹ s⁻¹; Km (purified protein [4]): 206 ± 17 µM; kcat (purified protein [4]): 2.7 ± 0.1 s⁻¹; kcat/Km (purified protein [4]): 13200 ± 700 M⁻¹ s⁻¹

B3: AauDyP (Auricularia auricula-judae) (protein)
chain: ATSLNTDDIQGDILVGMHKQKQLFYFFAINDPATFKTHLASDIAPVVASVTQLSNVATQPLVALNIAFSNTGLLALGVTDNLGDSLFANGQAKDATSFKESTSSWVPQFAGTGIHGVIILASDTTDLIDQQVASIESTFGSSISKLYSLSASIRPGNEAGHEMFGFLDGIAQPAINGFNTPLPGQNIVDAGVIITGATNDPITRPSWAVGGSFLAFRQLEQLVPEFNKYLLDNAPAGSGSLQARADLLGARMVGRWKSGAPIDLTPTADDPALGADAQRNNNFTYSHAGFDLGSDQSHCPFSAHIRKTRPRADLGGSLTPPNLSAGANSIMRSGIPYGPEVTSAESASNTTTQERGLAFVAYQAQLSQGFHFLQQTWADNANFPPGKTPATVGLDPIIGQNNGQPRVVNGLLPSNSSASLSIPQFVVSHGGEYFFSPPISAIGGRLSA
notes: heme enzyme
Q: With B3 as the protein, how does the Km (purified protein [6]) read?
A: 448 ± 59 µM

Q: And the kcat (purified protein [6])?
A: 0.3 ± 0.01 s⁻¹

Q: What about the kcat/Km (purified protein [6]) of the same protein?
A: 700 ± 100 M⁻¹ s⁻¹

B4: PchLiPA (Phanerodontia chrysosporium) (protein)
chain: ATCSNGKTVGDASCCAWFDVLDDIQQNLFHGGQCGAEAHESIRLVFHDSIAISPAMEAQGKFGGGGADGSIMIFDDIETAFHPNIGLDEIVKLQKPFVQKHGVTPGDFIAFAGRVALSNCPGAPQMNFFTGRAPATQPAPDGLVPEPFHTVDQIINRVNDAGEFDELELVWMLSAHSVAAVNDVDPTVQGLPFDSTPGIFDSQFFVETQLRGTAFPGSGGNQGEVESPLPGEIRIQSDHTIARDSRTACEWQSFVNNQSKLVDDFQFIFLALTQLGQDPNAMTDCSDVIPQSKPIPGNLPFSFFPAGKTIKDVEQACAETPFPTLTTLPGPETSVQRIPPPPGA
notes: heme enzyme
Q: Which Km (purified protein [7]) does the source give for B4 here?
A: 88 ± 3 µM

Q: And the kcat (purified protein [7])?
A: 1.3 ± 0.2 s⁻¹

Q: What about the kcat/Km (purified protein [7]) of the same protein?
A: 14700 ± 400 M⁻¹ s⁻¹

Q: And the Km (purified protein [4])?
A: 208 ± 41 µM

Q: And the kcat (purified protein [4])?
A: 1.3 ± 0.1 s⁻¹

Q: What about the kcat/Km (purified protein [4]) of the same protein?
A: 6500 ± 700 M⁻¹ s⁻¹

B5: TcuDyP (Thermomonospora curvata DSM 43183) (protein)
chain: SEERAAGARPSATQTTGTATEPFHGPHQAGIATPPQAHAVFLGLDLRKGTGRKELGRLMRLLTDDARRLTQGRPALADPEPDLAPLPSRLTFTFGFGPGLFKAAGLEKQRPEGLRPLPPFKVDRLEDRWSGGDLLVQICCDDPITLAHALRMTVKDARAFTRVRWVQRGFRRSPGVQSSGATQRNLMGQLDGTVNPVPGTADFDQAVWVQDGPEWLRGGTTLVLRRIRMELEKWDEADPAGKEFAVGRRLTSGAPLTGRHEHDEPDFDAVDSAGFPVIAENAHIRLAHVDSPRLRMLRRPYNYDEGLTADGRSDAGLLFAAYQADIDRQFIPVQRRLDEGGDLLNLWTTPIGSAVFAIPPGCDENGWIGQGLLG
notes: mature protein without signal peptide, codon-optimised, N-terminal His tag (pET28a), soluble from E. coli BL21(DE3) pLysS, heme enzyme
Q: How did the Km (purified protein [8]) turn out when B5 was run?
A: 309 ± 95 µM

Q: And the kcat (purified protein [8])?
A: 53.0 ± 6.1 s⁻¹

Q: What about the kcat/Km (purified protein [8]) of the same protein?
A: 170000 ± 30000 M⁻¹ s⁻¹

Q: And the Km (purified protein [2]; 1 mM H2O2, pH 3, 25 °C, pH 3.0)?
A: 2 ± 0.3 µM

Q: And the kcat (purified protein [2]; 1 mM H2O2, pH 3, 25 °C, pH 3.0)?
A: 2.7 ± 0.4 s⁻¹

Q: And the kcat/Km (purified protein [2]; 1 mM H2O2, pH 3, 25 °C, pH 3.0)?
A: 1.3e+06 ± 100000 M⁻¹ s⁻¹

Q: What about the Km (purified protein [3]) of the same protein?
A: 7 ± 2 µM

Q: And the kcat (purified protein [3])?
A: 1.3 ± 0.1 s⁻¹

Q: What about the kcat/Km (purified protein [3]) of the same protein?
A: 200000 ± 40000 M⁻¹ s⁻¹

Q: What about the Km (purified protein [4]) of the same protein?
A: 80 ± 16 µM

Q: And the kcat (purified protein [4])?
A: 1.1 ± 0.1 s⁻¹

Q: What about the kcat/Km (purified protein [4]) of the same protein?
A: 14200 ± 1800 M⁻¹ s⁻¹
